± gives the standard deviation of the averaged measurements.
Assay: total protein half-life in vivo (active degradation + dilution); higher = more stable protein
[1] = wild type E. coli NCM3722, growth: C-lim chemostat, doubling time 3 h
[2] = wild type E. coli NCM3722, growth: C-lim chemostat, doubling time 6 h
[3] = wild type E. coli NCM3722, growth: C-lim chemostat, doubling time 12 h
[4] = E. coli NCM3722 delta-clpP delta-lon delta-hslV, growth: N-lim chemostat, doubling time 6 h
[5] = E. coli NCM3722 delta-clpP, growth: N-lim chemostat, doubling time 6 h
[6] = E. coli NCM3722 delta-hslV, growth: N-lim chemostat, doubling time 6 h
[7] = E. coli NCM3722 delta-lon, growth: N-lim chemostat, doubling time 6 h
[8] = E. coli NCM3722 delta-smpB, growth: N-lim chemostat, doubling time 6 h
[9] = wild type E. coli NCM3722, growth: N-lim chemostat, doubling time 6 h
[10] = wild type E. coli NCM3722, growth: N-lim chemostat, doubling time 12 h
[11] = wild type E. coli NCM3722, growth: P-lim chemostat, doubling time 6 h
[12] = wild type E. coli NCM3722, growth: P-lim chemostat, doubling time 12 h

| Sequence | total protein half-life in vivo [1] [h] | total protein half-life in vivo [2] [h] | total protein half-life in vivo [3] [h] | total protein half-life in vivo [4] [h] | total protein half-life in vivo [5] [h] | total protein half-life in vivo [6] [h] | total protein half-life in vivo [7] [h] | total protein half-life in vivo [8] [h] | total protein half-life in vivo [9] [h] | total protein half-life in vivo [10] [h] | total protein half-life in vivo [11] [h] | total protein half-life in vivo [12] [h] |
| --- | --- | --- | --- | --- | --- | --- | --- | --- | --- | --- | --- | --- |
| MPENYTPAAAATGTWTEEEIRHQPRAWIRSLTNIDALRSALNNFLEPLLRKENLRIILTGAGTSAFIGDIIAPWLASHTGKNFSAVPTTDLVTNPMDYLNPAHPLLLISFGRSGNSPESVAAVELANQFVPECYHLPITCNEAGALYQNAINSDNAFALLMPAETHDRGFAMTSSITTMMASCLAVFAPETINSQTFRDVADRCQAILTSLGDFSEGVFGYAPWKRIVYLGSGGLQGAARESALKVLELTAGKLAAFYDSPTGFRHGPKSLVDDETLVVVFVSSHPYTRQYDLDLLAELRRDNQAMRVIAIAAESSDIVAAGPHIILPPSRHFIDVEQAFCFLMYAQTFALMQSLHMGNTPDTPSASGTVNRVVQGVIIHPWQA | 3.44 ± 0.35 | 3.18 | 5.91 |  |  |  |  |  |  |  |  |  |
| MQLNKVLKGLMIALPVMAIAACSSNKNASNDGSEGMLGAGTGMDANGGNGNMSSEEQARLQMQQLQQNNIVYFDLDKYDIRSDFAQMLDAHANFLRSNPSYKVTVEGHADERGTPEYNISLGERRANAVKMYLQGKGVSADQISIVSYGKEKPAVLGHDEAAYSKNRRAVLVY [P0A912] | 3.09 ± 0.057 | 5.6 ± 0.32 | 10.7 ± 1.1 | 6.43 ± 0.059 | 6.28 ± 0.35 | 6.46 ± 0.39 | 6.35 ± 0.55 | 5.44 ± 0.29 | 6.17 ± 0.19 | 12.6 ± 0.94 | 5.9 ± 0.72 | 11.3 ± 1.8 |
| MNTVRSEKDSMGAIDVPADKLWGAQTQRSLEHFRISTEKMPTSLIHALALTKRAAAKVNEDLGLLSEEKASAIRQAADEVLAGQHDDEFPLAIWQTGSGTQSNMNMNEVLANRASELLGGVRGMERKVHPNDDVNKSQSSNDVFPTAMHVAALLALRKQLIPQLKTLTQTLNEKSRAFADIVKIGRTHLQDATPLTLGQEISGWVAMLEHNLKHIEYSLPHVAELALGGTAVGTGLNTHPEYARRVADELAVITCAPFVTAPNKFEALATCDALVQAHGALKGLAASLMKIANDVRWLASGPRCGIGEISIPENEPGSSIMPGKVNPTQCEALTMLCCQVMGNDVAINMGGASGNFELNVFRPMVIHNFLQSVRLLADGMESFNKHCAVGIEPNRERINQLLNESLMLVTALNTHIGYDKAAEIAKKAHKEGLTLKAAALALGYLSEAEFDSWVRPEQMVGSMKAGR | 3.18 ± 0.23 | 5.9 ± 0.12 | 9.94 ± 0.14 | 4.65 ± 0.1 | 4.64 ± 0.49 | 4.42 ± 0.081 | 4.69 ± 0.13 | 4.11 ± 0.091 | 4.59 ± 0.14 | 7.19 ± 0.16 | 5.82 ± 0.21 | 12.6 ± 0.33 |
| MKKMMIATLAAASVLLAVANQAXAGATLDAVQKKGFVQCGISDGLPGFSYADADGKFSGIDVDICRGVAAAVFGDDTKVKYTPLTAKERFTALQSGEVDLLSRNTTWTSSRDAGMGMAFTGVTYYDGIGFLTHDKAGLKSAKELDGATVCIQAGTDTELNVADYFKANNMKYTPVTFDRSDESAKALESGRCDTLASDQSQLYALRIKLSNPAEWIVLPEVISKEPLGPVVRRGDDEWFSIVRWTLFAMLNAEEMGINSQNVDEKAANPATPDMAHLLGKEGDYGKDLKLDNKWAYNIIKQVGNYSEIFERNVGSESPLKIKRGQNNLWNNGGIQYAPPVR |  |  |  | 4.74 ± 0.45 |  |  |  |  |  |  |  |  |
| MANLLNKFIMTRILAAITLLLSIVLTILVTIFCSVPIIIAGIVKLLLPVPVIWRKVSRFCDFMMYCWCEGLAVLLHLNPHLQWEVHGLEGLSKKNWYLLICNHRSWADIVVLCVLFRKHIPMNKYFLKQQLAWVPFLGLACWSLDMPFMKRYSRAYLLRHPERRGKDVETTRRSCEKFRLHPTTIVNFVEGSRFTQEKHQQTHSTFQNLLPPKAAGIAMALNVLGKQFDKLLNVTLCYPDNNRQPFFDMLSGKLTRIVVHVDLQPIADELHGDYINDKSFKRHFQQWLNSLWQEKDRLLTSLMSSQRQNK |  | 6.03 |  |  | 6.87 |  |  |  |  | 10.5 |  | 13.6 |
| MLTVKQIEAAKPKEKPYRLLDGNGLYLYVPVSGKKVWQLRYKIDGKEKILTVGKYPLMTLQEARDKAWTARKDISVGIDPVKAKKASSNNNSFSAIYKEWYEHKKQVWSVGYATELAKMFDDDILPIIGGLEIQDIEPMQLLEVIRRFEDRGAMERANKARRRCGEVFRYAIVTGRAKYNPAPDLADAMKGYRKKNFPFLPADQIPAFNKALATFSGSIVSLIATKVLRYTALRTKELRSMLWKNVDFENRIITIDASVMKGRKIHVVPMSDQVVELLTTLSSITKPVSEFVFAGRNDKKKPICENAVLLVIKQIGYEGLESGHGFRHEFSTIMNEHEWPADAIEVQLAHANGGSVRGIYNHAQYLDKRREMMQWWADWLDEKVE | 3.123 ± 0.013 | 5.53 ± 0.077 | 10.3 ± 0.26 | 6.44 ± 2.1 | 5.79 ± 0.58 | 5.96 ± 0.24 | 5.37 ± 0.098 | 5.02 ± 0.39 | 5.503 ± 0.0091 |  | 5.34 ± 0.46 | 10.8 ± 1.7 |
| MNHAPHLYFAWQQLVEKSQLMLRLATEEQWDELIASEMAYVNAVQEIAHLTEEVDPSTTMQEQLRPMLRLILDNESKVKQLLQIRMDELAKLVGQSSVQKSVLSAYGDQGGFVLAPQDNLF [P0ABY2] | 0.191 |  |  |  |  |  |  |  |  |  |  |  |
| MVWIDYAIIAVIAFSSLVSLIRGFVREALSLVTWGCAFFVASHYYTYLSVWFTGFEDELVRNGIAIAVLFIATLIVGAIVNFVIGQLVEKTGLSGTDRVLGVCFGALRGVLIVAAILFFLDSFTGVSKSEDWSKSQLIPQFSFIIRCFFDYLQSSSSFLPRA |  |  |  |  |  |  |  |  |  | 7.81 |  |  |
| MKAVSRVHITPHMHWDREWYFTTEESRILLVNNMEEILCRLEQDNEYKYYVLDGQTAILEDYFAVKPENKDRVKKQVEAGKLIIGPWYTQTDTTIVSAESIVRNLMYGMRDCLAFGEPMKIGYLPDSFGMSGQLPHIYNGFGITRTMFWRGCSERHGTDKTEFLWQSSDGSEVTAQVLPLGYAIGKYLPADENGLRKRLDSYFDVLEKASVTKEILLPNGHDQMPLQQNIFEVMDKLREIYPQRKFVMSRFEEVFEKIEAQRDNLATLKGEFIDGKYMRVHRTIGSTRMDIKIAHARIENKIVNLLEPLATLAWTLGFEYHHGLLEKMWKEILKNHAHDSIGCCCSDKVHREIVARFELAEDMADNLIRFYMRKIADNMPQSDADKLVLFNLMPWPREEVINTTVRLRASQFNLRDDRGQPVPYFIRHAREIDPGLIDRQIVHYGNYDPFMEFDIQINQIVPSMGYRTLYIEANQPGNVIAAKSDAEGILENAFWQIALNEDGSLQLVDKDSGVRYDRVLQIEESSDDGDEYDYSPAKEEWVITAANAKPQCDIIHEAWQSRAVIRYDMAVPLNLSERSARQSTGRVGVVLVVTLSHNSRRIDVDINLDNQADDHRLRVLVPTPFNTDSVLADTQFGSLTRPVNDSAMNNWQQEGWKEAPVPVWNMLNYVALQEGRNGMAVFSEGLREFEVIGEEKKTFAITLLRGVGLLGKEDLLLRPGRPSGIKMPVPDSQLRGLLSCRLSLLSYTGTPTAAGVAQQARAWLTPVQCYNKIPWDVMKLNKAGFNVPESYSLLKMPPVGCLISALKKAEDRQEVILRLFNPAESATCDATVAFSREVISCSETMMDEHITTEENQGSNLSGPFLPGQSRTFSYRLA |  |  |  | 6.07 |  |  |  | 1.754 ± 0.011 |  | 3.4 |  |  |
| MKDKVYKRPVSILVVIYAQDTKRVLMLQRRDDPDFWQSVTGSVEEGETAPQAAMREVKEEVTIDVVAEQLTLIDCQRTVEFEIFSHLRHRYAPGVTRNTESWFCLALPHERQIVFTEHLAYKWLDAPAAAALTKSWSNRQAIEQFVINAA [P0AFC0] |  | > 8 | 4.68 ± 0.41 | 3.93 | > 8 |  | 3.07 | 2.07 | 2.22 ± 0.26 | 3.45 | 2.75 ± 0.2 |  |
| MRIGIPRERLTNETRVAATPKTVEQLLKLGFTVAVESGAGQLASFDDKAFVQAGAEIVEGNSVWQSEIILKVNAPLDDEIALLNPGTTLVSFIWPAQNPELMQKLAERNVTVMAMDSVPRISRAQSLDALSSMANIAGYRAIVEAAHEFGRFFTGQITAAGKVPPAKVMVIGAGVAGLAAIGAANSLGAIVRAFDTRPEVKEQVQSMGAEFLELDFKEEAGSGDGYAKVMSDAFIKAEMELFAAQAKEVDIIVTTALIPGKPAPKLITREMVDSMKAGSVIVDLAAQNGGNCEYTVPGEIFTTENGVKVIGYTDLPGRLPTQSSQLYGTNLVNLLKLLCKEKDGNITVDFDDVVIRGVTVIRAGEITWPAPPIQVSAQPQAAQKAAPEVKTEEKCTCSPWRKYALMALAIILFGWMASVAPKEFLGHFTVFALACVVGYYVVWNVSHALHTPLMSVTNAISGIIVVGALLQIGQGGWVSFLSFIAVLIASINIFGGFTVTQRMLKMFRKN |  |  | 14.5 ± 0.55 | 6.21 ± 0.11 | 6.81 ± 0.17 | 6.66 ± 0.067 | 6.58 ± 0.37 | 6.01 ± 0.82 | 6.23 ± 0.47 | 12.6 ± 0.42 | 6.73 ± 0.34 | 11.6 ± 1.5 |
| MSQLNSVWVFSDNPERYAELFGGAQQWGQQVYAIVQNTDQAQAVMPYGPKCLYVLAQNDALQRTENYAESIAALLKDKHPAMLLLAATKRGKALAARLSVQLNAALVNDATAVDIVDGHICAEHRMYGGLAFAQEKINSPLAIITLAPGVQEPCTSDTSHQCPTETVPYVAPRHEILCRERRAKAASSVDLSKAKRVVGVGRGLAAQDDLKMVHELAAVLNAEVGCSRPIAEGENWMERERYIGVSGVLLKSDLYLTLGISGQIQHMVGGNGAKVIVAINKDKNAPIFNYADYGLVGDIYKVVPALISQLSR |  |  |  | 5.37 ± 0.057 |  | 4.24 |  |  |  | 6.04 |  |  |
| MAQFYSAKRRTTTRQIITVSVNDLDSFGQGVARHNGKTLFIPGLLPQENAEVTVTEDKKQYARAKVVRRLSDSPERETPRCPHFGVCGGCQQQHASVDLQQRSKSAALARLMKHDVSEVIADVPWGYRRRARLSLNYLPKTQQLQMGFRKAGSSDIVDVKQCPILAPQLEALLPKVRACLGSLQAMRHLGHVELVQATSGTLMILRHTAPLSSADREKLERFSHSEGLDLYLAPDSEILETVSGEMPWYDSNGLRLTFSPRDFIQVNAGVNQKMVARALEWLDVQPEDRVLDLFCGMGNFTLPLATQAASVVGVEGVPALVEKGQQNARLNGLQNVTFYHENLEEDVTKQPWAKNGFDKVLLDPARAGAAGVMQQIIKLEPIRIVYVSCNPATLARDSEALLKAGYTIARLAMLDMFPHTGHLESMVLFSRVK | 2.96 ± 0.12 | 5.12 ± 0.17 | 9.07 ± 0.16 | 5.4 ± 0.1 | 5.11 ± 0.95 | 4.34 ± 0.43 | 4.54 ± 0.058 | 3.9767 ± 0.00076 | 4.203 ± 0.032 | 6.93 ± 0.14 | 4.49 ± 1 | 10.7 ± 2.4 |
| MNVIRTEIEDVLILEPRVFGDDRGFFYESFNQSAFEHILGYPVSFVQDNHSRSSKNVLRGLHFQRGEYAQDKLVRCTHGAVFDVAVDIRPNSVSFGKWVGVLLSADNKQQLWIPKGFAHGFLVLSDIAEFQYKTTNYYHPESDCGICWNDERIAIDWPQTSGLILSPKDERLFTLDELIRLKLIA |  |  |  | 6.28 |  |  | 3.33 ± 0.14 |  |  | 3.7 |  |  |

— the supplement of paper PMC11246515
